Experiment [1] has as its target Y98F HA trimer from A/New Caledonia/20/1999 (H1 1999 NC), soluble trimeric format (influenza A virus A/New Caledonia/20/1999 (H1 1999 NC)). As to the kind of experiment: SEC; size exclusion on a Sepharose 10/300 column.
Experiment [2] has as its target wildtype (WT) HA trimer from A/New Caledonia/20/1999 (H1 1999 NC), soluble trimeric format (influenza A virus A/New Caledonia/20/1999 (H1 1999 NC)) (UniProt Q6WG00). The experiment can be described thus: SEC; size exclusion on a Sepharose 10/300 column.

Regarding “Y98F HA trimer from A/New Caledonia/20/1999 (H1 1999 NC), soluble trimeric format (natural protein)”, the stoichiometry N in experiment [1] is 3. Take “wildtype (WT) HA trimer from A/New Caledonia/20/1999 (H1 1999 NC), soluble trimeric format (from UniProt Q6WG00 1-565) (natural protein)”: the stoichiometry N in experiment [2] was 3.

The record behind these values is publication PMC5087089.
